assay: label from the status in PepcDB records

With “MPQLQKEWFDTWFDTPYYHILYSNRDESEAEVFLTNLMNHMAVPKGASILDLPCGKGRHTLFLAEKGYTLTGADLSVASIALAQSHAPAGVTFLVHDLRKPAWNESFDYVLNLFTSFGYFETEAEDRAAFTTLSKALKSGGSLVIDFMNVTRAVNLLKEEETKVMEGIEFQLKRYVKDGYIHKEIRFEADNTPFFFTERVKALTLDDFKEFFTFAGLTLVDTFGSYQLDAYDAAESDRLIMIAKKLEHHHHHH” as the sequence, how does the protein production read?
Its protein production is “not failed”.

For “MPQTPPFPVMYGSTNGYNKNLYKAKEEDYEGLYYHDNNLISGSLEALIEHLVPTVAYYPDRTYIFTFLLSSRLFLHPYELMSKVCHLCVDQQRLSDPQADKARVRKIAPKILQLLTEWTETFPYDFRDERMMKSLKELTHRLSTGEDLYRKAVQQMTQTLIRKLTTLSQYEEALAKINSSVTDRLTVLKTKPQSIQRDILTICNDPFTLAQQLTHIELERLSYIGPEEFVQAFVQKDPLDNDKNCFSDHKKASNLEAYVEWFNRLSYLVATEICMPVKKKHRARVIEFFIDVARECFNIGNFNSLMAIITGMNMSPVSRLKKTWAKVKTAKFDILEHQMDPSSNFYNYRTALRGATQRSITAHSSREKIVIPFFSLLIKDIYFLNEGCANRLPNGHVNFEKFWGLAKQVTEFMTWKKVECPFDRDRKILQYLLTAPVFSEDALYLASYESEGPENNMEKDRWKSLRSSLLNRT”, which protein production is on record?
The protein production was “not failed”.

With “MPRCIIYVDFPCWHPVRQRPLRVRGRFRTFVRSHAFPSPPVSDPSPSSSDASPPDALVIIPTYNEADNIGPVIDQVLEQSPPLSVLVVDDNSTDGTADLVRSKKTDALDRVHLIERSGKLGLGTAYLRGFRYALAQDYTYICEMDADRSHDPNDLPRLIAPVREGEVALAIGSRYVEGVRVINWPLSRLVLSYGAGVYTRAITRLPLLDVTAGFKCFHRRVLETLPLDRVNSDGYAFQVEMHYRTWRAGFPFTEVPVVFTERTEGESKMRREIVVEAALKVWELRLQDLLGRL” as the sequence, how does the protein production read?
The protein production was “failed”.

Which protein production does the source give for “MPRLTTRALTRCLLATLALLCIALPALAAAPITPLRVMSFNVRVPVDTDGDKRWQARRGAMVSVIKQTHPDVFGTQELVSEQAGYLAAQLPNYRWFGQGRRGDDSDEHMGVFYDTRTLNVVESGNFWLSDTPEVAGSITWGNVLPRMVTWALFERRSDKRRFYLFNTHFPYRDEDEPAREHSARLILSRIAQLPADIPVVLTGDFNSDPDKITYPTLTAVLGDARARAPKRSGPENTFQDFSTHPTRRIDWILFRGLTPTQFTTLDDRPGGVLPSDHYPVLAEFAWPR” here?
Its protein production is “failed”.

Which protein production does the source give for “MPRNNKTSLIQKIASQAYATFTNCSSSAIEDNNKVFLEHQADLVALLSDIRAADLKIAPPTKVSTSSPSVPPVTYMHICETDVFSMGVFLLKSGASIPLHDHPGMHGMLKVLYGKVSIRCYDKLDKAESDTERHFDPPLLAFQGDDVRRAALRSSGQFSELSGPCVLSPFKDNLHEIDAVDGAAAFLDILAPPYDPDDGRDCHYYRVLQTAGKKSEQSGDDEAWLLEIPQPDDFWCGGEPYPGPEVTI” here?
Its protein production is “not failed”.

Which protein production does the source give for “MPRPLVDEVRFLRSWIEKPLHMGAVMPSGKLLARTMARYVDIQSDGPVIELGPGTGAITNALVEHGVDQKRLVLLEFDPGFCALLRERFPLAKVVQGDAYRLRDSLWDALEIPATAVVSGLPLVTKPMLTRMKLIRDAFTLLEPGAPFVQFTYSVAPPIPKSLPGVSTEGSERIWMNVPPARVWVYRKRLEHHHHHH” here?
Its protein production is “not failed”.

With “MPSEVTEEFIIIIAVVLIGLVLFGFVTSYFIPHEIFSLAQQQASSISSSTTVSVGPLIFNSGSASTVIEAYNPAISGNITLIVFPEPSYLQQDVGLVTPQSPPQFSVYLSNEKLAKSFTISIPIYDVNGRIIYDSQITAYTVPFNTPVTITVNGVGGSNYILIVWVLYNSNGYWFRIGYTFTGVPST” as the sequence, how does the protein production read?
Its protein production is “failed”.

With “MPSFLEISPDKLNRLIGTPGAPRIIDVRTDEDFALDPRLVPGSIRRDHAEVASWADSIDADAVVVVCHRGAKLSHGVAAYLRHAGIEAESLAGGFEAWAAAGPAVPEAKLEHHHHHH” as the sequence, how does the protein production read?
Its protein production is “failed”.

For “MPSFRRSVAAVVTALPLIAGGCAHRPAVETASPEAVQWNLSDGAETTFYYLMLDQAARSDNTRDAIEAIENLIRLSPTARVYNDSGSFLLSRKEPDLARDILTRGVAAHPDDLGLTLLLAESYLDLDRNDEAIALLRAYNAKHPKDDEARQELAQLLVKTRRYEEADKLILSIGETSRTSLLRYYHARALMGLNRLTEATAQLRKAVKASPDFLEAWAELAYVYELRKNYVEAEKIYEQILALDEGNQDVWLRLVAINIKLNNPVKAYELARQGPETFGFMLTAATLFLDDRFFEQAEGLLLAVKDSPGAPEEVYFFLAVLAYEGQRDTDATLSWLLEVRPTNKYYDRALRLRSQLLYEKGDLEAALRTAREGRETFPEQRDFREMEAQLLVNMGRSEEALRVIDKAADRWPDDSGLLFMRALILDDRGAKDAAFAAMEEVIKASPNHAQALNYVGYTLAEQERDLTRAVSLLERANTLSPDNPFILDSLAWAYFKAGRIPEAWKAISRAIELNAPDPIIWEHYGDIATAMGQKNTARRAYRKALSMNPQNPDAIKAKLDKK”, which protein production is on record?
The protein production was “failed”.

For “MPSMSPIDKSWSTCPYGFLDGTHQELRRIFHLWRCKKYRSQFTEEKKATYEEKLAASELFKDKKALYPSSVSQPFKGDYVEITKNPKYQKLNSLVEDKVLLADVVSKINRANGKGTPRIFLLTKKCLVLADQKTGQVKASVPLPDLSSVFVSTQNDGFFALKLREGATSAAKGDYLLSSDRLIEIITKLYCTGAASAERNQIKIDISDEFLVQFKQDKVCVKFIQGTPKNSNSVSCKRKNNRLLEVSVPSP”, which protein production is on record?
Its protein production is “failed”.

Which protein production does the source give for “MPSQDWERSVLGCSMQVGQGWCCVDLSDISCVQDVAKEVLDCYGCVDILINNASVKVKGPAHKISLELDKKIMDANYFGPITLTKVLLPNMISRRTGQIVLVNNIQAKFGIPFRTAYAASKHAVMGFFDCLRAEVEEYDVVVSTVSPTYIRSYRASPEQRNWETSICKFFCRKLAYGVHPVEVAEEVMRTVRRKKQEVFMANPVPKAAVFIRTFFPEFFFAVVACGVKEKLNVPEEG” here?
Its protein production is “failed”.

With “MPSQLGITLKQVRLQQHLSQATVATGICAQSMLSAIENGKYTPNATLLMRLCQRLKISLDQLSLAENFTISDLEQINDRLAKLCNHHRYADLREFLLTDAVQARLTTDVQLAAYYYYLGITDFQLGHLTDAQQQFQLALASAPAQHRTTLSRLCWMSLALIHASRQQANASEEAMTQAVTQLKTAPYEANLNSLFYLAAVSHLKLNQLTIAAQWLERGIDFATDHDSHYMLANDYHLLAVIASRSEQIDQQRTAQATEHVLTTLFHESIYDRLD” as the sequence, how does the protein production read?
Its protein production is “failed”.

With “MPSSDLRAFVVRVVIVLALVAYAWLLWALSGLLLMVFGAVVVAVLLRALASWVTRYTPLSDGMALGLVVVVVAVGFTALLWLFGSQLATELGALQRTLPQAWARFHDWVAAGPLGPALEELTRQAPARVSNLAPRAGAFALSITGGVANLFLVLAGAVYLAAQPQLYRRGVLLLFPVQVRATMDDAVRASGTALRLWLRGQLLAMVVVGALTGLGLWALGIPGALALGIIAGLLDFVPIVGPILAAIPAILLGFTVSPQMALATAALFVVVQQIEGNILLPLIQQRTVDLPPVLLLFSLFGIGTLLGPAGVLLAAPLTVVAFVLVKRLYVQEALHTPTSIPGQKHH” as the sequence, how does the protein production read?
Its protein production is “failed”.

With “MPSSSASLIPSLRQASRQMVRELGFMQATLAATDYPPSAVHALLEIGQGNALTAGDLVTLLGLEKSSVSRLVRKLVDAGEISEQAHDQDARSKKLQLSARGRQTLAGIDRFAQAQVAAALAHLSPAQQRSACAGIADYARALRAVRLGDVPEPPERCSIARGYRPGVIGRIAEMHARYYADLAGFGQPFESLVARDMAELMGRLHNPRNEVWVALQGERIVGSIAIDGEGEGGEALLRCFILDEAARGQGLGRRLLAEALGFCDQWGFAATRLWTFKGLDAARALYEEQGFVLVQEQEGEQWGAPVTEQCFVRARVAQRDTIR” as the sequence, how does the protein production read?
The protein production was “failed”.

For “MPTATDARGHTVTLDHRPRRILSLVPSQTELLAHLDLADEVVGITRFCERPEHWRSEKAIVGGTKQVDFDTVRDLDPDLVLANHEENTAEDVETLDEIAPVFVTEVKTVEDALGMIRTVGTLTETSDQTSTLVGKIISRFESLPDFTSLRAAYLIWRDPYMTIGNDTFIHDVMHWGGLENAYGDQTRYPDVTIADLAEQDLDVVLCSSEPFPFHEKDAFTADLREALPDTSVEIVDGQPFSWYGPRLLDTPSYLKTLRERLPTPAPRR”, which protein production is on record?
Its protein production is “failed”.

Which protein production does the source give for “MPTFDHGNLSLGELELTVLYDEERYDIVEQTETVQVDLEGPRGVLTVFRFARPSYEVFVDLTEAGEGSHTVDVEHRGFPGDLAVTVEPRMARVQLEERQTVSVPVTVEMINLEHHHHHH” here?
Its protein production is “not failed”.

For “MPTLQLFIYIIGFLFLMYMAWSLWTEKPSNIEEIEPMSAKKQILFALSVSLLNPHAIMDTVGVIGTSASVYDGYDKVVFSLATISVSWIWFVFLAILGRITGKIDKSGKYIVILNKVSSVIVIIVGLIILKNIVGILS”, which protein production is on record?
Its protein production is “failed”.

For “MPTPTYPKASLIIRERGLPKREVLLSPDRQWTIGRQLDCSIRLTDAYVSRLHAVINAFLFRGQPLYFIRDAHSRNGTFLNGFPLQHSTLLHHEDVIGVGTTLLVFYYPDMFREISLDECPELTKGSTDSLPWRS”, which protein production is on record?
Its protein production is “failed”.

Which protein production does the source give for “MPTTKQLKDTELPLNFFEHSSLETIELFIQHLTEAMILVNANGFIRSCNQRSAELLDCPQVSLKGQDWRNFLTEHHQARYDNLLSHDVQLGTNCGQPVQHPAQETTLICASGKAKDVELSISYIPGHEPMFVMVMHDLTHHKAELEHHHHHH” here?
The protein production was “not failed”.

Which protein production does the source give for “MPTVFIFLTAVYAGLGAFAWHCQQQGRGRDYPWKTELPVLGAALTVHGAALLMPVIQDKIIIMGFGYSGSLIVWMMLFIYFAGSFFYPLRGVQLLLYPCAALMLLSGLVFPGKFSGYEITDFPFMLHIGTSLLAYGLFGIATLLSVLSLLLHRSLHRRNFSKLAGFLPSLLSLEKLMFQAMWAGFILLTYSVVSGTFFAEAVFGKPMTFTHKTVFGILSWLIYGGLLLKHSMTAWRGKKAAVWTIIGFVSLMIAYMGSKFVLEIILKR” here?
Its protein production is “failed”.

For “MPTYLFLSSGNVLADRRYDFARELLARGEAEAAADLLAQAVELAPDFTSAWFALGEIRQDRLGNREGAVDAFRRARAADPRDRHGAGLRLMRLGAADLDAMSPAYIGALFDQYAPRFDKSLVEDLGYRGPALLFEAVREVCETTGRAMAFRRAIDLGCGTGLVGRAFAPIISEIIGFDLAPQMIERARATGVYGRLAVTDLVQGLANEPPASAELILAADVLIYIQDVAPLLHEAARVLPPGGLLAVTAETHAGDGVVLTAGLRFAQAESYLRAELERAGLVVALLQYASARNEKHTPLPGLVVVAFRPNG”, which protein production is on record?
The protein production was “failed”.

For “MPTYSAMANTDGGIVILGVRERKGQFEVAGIENPDKLRTELFNHLNNRQKVSVNLLRDEDVRAWPVEGKTLLVVEIPRARRQQRPVYLRGNPLGGHTYRRLHEGDRPLEHHHHHH”, which protein production is on record?
The protein production was “failed”.

Which protein production does the source give for “MPVCWSHRSDSRPASNATPLSGPVGWAHQAAPLQRLLHGTAPVILSPALEPPQHKDPAMPKLASIHLYPIKSTAGMPLTRALVTEEGLQGDRRYMVVKPDGSFITARTHPQLQQVVATPIEGGLQLRYPGLDPLILQEREFSRTPRATGVWSDSFSALQTQPQADQWLSQVAGEPVQLLWLGEESARFREKTGTRVSFADGYPLLLISQASLEDLNLRSDALHQMSQFRTNLVASGTLPFEEDGWKRIRIGEVEFRVAKPCSRCIMTTVEPGTDRFNALKEPLATLTRYRRGEDGEVYFGQNLVALNEGWIEAGSEIEVLERARAPVYPNAAPKKRELVCVAREPLARDLETFWFEAADGEPLPDYLPGQHLPISLDIGLGLRRERLQRRYTLSSTPERPERYSISVKKVGGGRISHWLHQQLQPGDRLLAAAPAGEFHLGTGRSLLLLSAGSGVTPMLSIARTLALRGELGDVHFMHLCRSEADIPAAGELHALAQQGMTLTLILSQPDTHWQGLKGRLGDDHLKQVKQLAEREVFICGPHGFMADAAARLVALGVPAERIRQESFGGAILSVARPHQAVQLRIGKQSFAGNNQGTVLDQAHKQGVDLPWSCRAGICGSCKQTLLEGEVDHPDAPAITAAERAEGKILTCCAVPLTDLVIK” here?
The protein production was “failed”.

Reference: a protein production outcome set (Wang et al. 2014)
